Key:
[1] = target: FGFR1c receptor/BKL complex on differentiated mouse 3T3-L1 adipocytes (mouse) (UniProt P16092); assay: cell-based or functional assay
[2] = target: FGF receptor/BKL complex on HEK293 cells overexpressing human beta-klotho (BKL) (human) (UniProt Q86Z14); assay: cell-based or functional assay
FGF receptor/BKL complex on HEK293 cells overexpressing human beta-klotho (BKL) (human), sequence (Q86Z14 whole entry, one chain of several): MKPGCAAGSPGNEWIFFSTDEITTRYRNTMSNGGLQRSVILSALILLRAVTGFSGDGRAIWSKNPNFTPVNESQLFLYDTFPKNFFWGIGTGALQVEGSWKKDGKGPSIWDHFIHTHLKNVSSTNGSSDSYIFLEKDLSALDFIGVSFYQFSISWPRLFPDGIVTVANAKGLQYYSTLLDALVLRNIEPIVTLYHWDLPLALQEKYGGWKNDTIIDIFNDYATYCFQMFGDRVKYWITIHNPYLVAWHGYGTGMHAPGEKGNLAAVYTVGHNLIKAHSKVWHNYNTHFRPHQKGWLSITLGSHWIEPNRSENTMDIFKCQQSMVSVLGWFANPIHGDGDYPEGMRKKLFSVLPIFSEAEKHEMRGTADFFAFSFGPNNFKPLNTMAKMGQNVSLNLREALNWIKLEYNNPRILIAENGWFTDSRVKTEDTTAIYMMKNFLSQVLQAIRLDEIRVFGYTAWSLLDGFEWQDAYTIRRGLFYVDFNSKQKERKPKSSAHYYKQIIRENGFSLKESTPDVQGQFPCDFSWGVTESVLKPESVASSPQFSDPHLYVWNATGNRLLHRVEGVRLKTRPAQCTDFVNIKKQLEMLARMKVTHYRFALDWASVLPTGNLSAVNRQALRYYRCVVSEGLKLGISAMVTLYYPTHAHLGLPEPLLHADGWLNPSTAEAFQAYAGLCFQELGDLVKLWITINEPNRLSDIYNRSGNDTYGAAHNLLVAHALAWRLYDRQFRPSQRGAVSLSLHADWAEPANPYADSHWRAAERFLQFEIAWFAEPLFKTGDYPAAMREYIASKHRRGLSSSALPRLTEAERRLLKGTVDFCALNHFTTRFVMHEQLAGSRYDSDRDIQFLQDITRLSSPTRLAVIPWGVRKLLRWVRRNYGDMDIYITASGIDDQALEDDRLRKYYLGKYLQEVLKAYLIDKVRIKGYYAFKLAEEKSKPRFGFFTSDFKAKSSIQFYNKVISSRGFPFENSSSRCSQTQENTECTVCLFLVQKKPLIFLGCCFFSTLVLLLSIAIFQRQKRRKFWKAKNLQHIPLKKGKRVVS

FGFR1c receptor/BKL complex on differentiated mouse 3T3-L1 adipocytes (mouse), sequence (P16092 22-822, chain 1 of 2): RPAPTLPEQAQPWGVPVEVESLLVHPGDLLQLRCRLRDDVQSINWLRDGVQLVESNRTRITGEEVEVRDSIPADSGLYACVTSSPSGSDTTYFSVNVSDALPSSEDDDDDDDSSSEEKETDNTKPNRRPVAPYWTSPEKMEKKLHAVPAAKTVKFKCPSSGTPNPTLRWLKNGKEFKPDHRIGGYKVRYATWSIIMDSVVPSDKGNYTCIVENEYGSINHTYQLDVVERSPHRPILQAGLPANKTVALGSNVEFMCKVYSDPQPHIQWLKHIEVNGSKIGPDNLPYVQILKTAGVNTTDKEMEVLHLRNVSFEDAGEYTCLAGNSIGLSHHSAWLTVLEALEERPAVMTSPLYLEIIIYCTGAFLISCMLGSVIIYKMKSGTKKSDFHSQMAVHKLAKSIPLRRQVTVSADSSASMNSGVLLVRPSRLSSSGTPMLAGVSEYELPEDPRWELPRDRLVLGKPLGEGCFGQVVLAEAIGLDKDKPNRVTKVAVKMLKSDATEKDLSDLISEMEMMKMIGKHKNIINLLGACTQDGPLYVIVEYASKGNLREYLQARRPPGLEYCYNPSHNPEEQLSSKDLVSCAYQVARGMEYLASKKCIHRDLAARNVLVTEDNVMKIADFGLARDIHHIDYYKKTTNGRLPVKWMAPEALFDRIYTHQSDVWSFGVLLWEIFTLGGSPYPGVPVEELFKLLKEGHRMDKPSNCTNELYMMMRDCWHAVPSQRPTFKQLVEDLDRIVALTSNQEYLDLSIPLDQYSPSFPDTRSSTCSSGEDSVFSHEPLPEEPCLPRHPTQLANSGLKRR
FGFR1c receptor/BKL complex on differentiated mouse 3T3-L1 adipocytes (mouse), sequence (Q99N32 whole entry, chain 2 of 2, further chain): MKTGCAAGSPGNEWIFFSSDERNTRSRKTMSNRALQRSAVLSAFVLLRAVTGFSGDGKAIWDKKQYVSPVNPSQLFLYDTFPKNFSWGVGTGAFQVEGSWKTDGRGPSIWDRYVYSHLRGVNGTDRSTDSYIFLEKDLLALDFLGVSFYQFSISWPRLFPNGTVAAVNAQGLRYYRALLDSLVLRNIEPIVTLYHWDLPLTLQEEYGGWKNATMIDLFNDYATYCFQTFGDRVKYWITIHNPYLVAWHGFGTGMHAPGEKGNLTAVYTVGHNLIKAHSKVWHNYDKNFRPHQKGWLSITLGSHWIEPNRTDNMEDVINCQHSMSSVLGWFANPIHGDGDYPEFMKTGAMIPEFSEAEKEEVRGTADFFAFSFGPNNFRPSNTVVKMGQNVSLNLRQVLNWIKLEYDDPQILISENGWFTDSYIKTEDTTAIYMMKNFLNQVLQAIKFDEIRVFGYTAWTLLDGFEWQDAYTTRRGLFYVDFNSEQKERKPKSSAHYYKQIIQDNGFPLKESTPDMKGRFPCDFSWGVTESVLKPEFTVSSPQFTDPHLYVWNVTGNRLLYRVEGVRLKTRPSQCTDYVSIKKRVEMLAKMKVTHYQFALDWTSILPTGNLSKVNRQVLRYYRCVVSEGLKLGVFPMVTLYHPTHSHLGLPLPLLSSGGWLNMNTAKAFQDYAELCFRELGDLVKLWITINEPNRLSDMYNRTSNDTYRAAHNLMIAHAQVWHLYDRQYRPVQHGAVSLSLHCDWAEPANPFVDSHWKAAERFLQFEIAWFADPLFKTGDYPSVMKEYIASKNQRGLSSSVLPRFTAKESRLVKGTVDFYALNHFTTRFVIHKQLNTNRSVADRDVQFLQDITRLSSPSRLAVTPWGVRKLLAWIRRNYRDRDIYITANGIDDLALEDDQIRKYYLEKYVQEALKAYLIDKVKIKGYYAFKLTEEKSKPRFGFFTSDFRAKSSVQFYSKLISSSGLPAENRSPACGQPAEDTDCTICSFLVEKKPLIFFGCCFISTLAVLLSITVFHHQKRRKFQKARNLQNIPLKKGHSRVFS
S{Beta-180}-2-aminoethylsulfanyl-Ala[Gln121,Leu168,Cys180]FGF21, sequence (Q9NSA1 other isoform, or with tags, fused parts or gaps limits assumed): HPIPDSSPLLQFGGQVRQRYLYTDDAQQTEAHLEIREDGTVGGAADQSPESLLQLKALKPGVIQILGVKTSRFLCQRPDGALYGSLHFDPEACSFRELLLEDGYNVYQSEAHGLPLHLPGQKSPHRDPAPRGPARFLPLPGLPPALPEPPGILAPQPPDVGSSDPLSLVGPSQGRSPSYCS

Glucose uptake EC50 (nM), 3T3-L1 adipocytes [1] [nM] | Glucose uptake Emax (%), 3T3-L1 adipocytes [1] [%] | EC50 (nM), pERK, HEK293/BKL cells [2] [nM] | EC50 (0.1% HSA) (nM), pERK, HEK293/BKL cells [2] [nM] | Substance
2.6 | 102 | 2.3 | – | S{Beta-180}-2-aminoethylsulfanyl-Ala[Gln121,Leu168,Cys180]FGF21 (from UniProt Q9NSA1 29-209) (ligand)
56 | 73 | 42 | 170 | S{Beta-181}-[2-[2-[[2-[2-[2-[[2-[2-[2-[[(4S)-4-carboxy-4-(17-carboxyheptadecanoyl-amino)butanoyl]amino]ethoxy]ethoxy]acetyl]amino]ethoxy]ethoxy]acetyl]amino]-ethylamino]-2-oxoethyl]-Ala[Gln121,Leu168,Cys181]FGF21 (from UniProt Q9NSA1 29-208) (ligand)

From patent US20180140673A1
